We go through 167 variants from the RNAGym collection of RNA variant scans (doi:10.7554/elife.90254).

To fix the notation:
B1: LINE1-mini (parent)
chain: GGCAGAGCUCAACACAGCGUGGCAAAGUGGCUGUGGCUAGACUGCC

This data set covers variants of B1. Kind of data set: self-cleavage, relative activity (ratio to wild type); higher = more cleavage; in vitro, sequencing; the parent is a self-cleaving ribozyme.
For the variant G7A U34A, the self-cleavage came to 0.1.
In the case of G7A U34C, the self-cleavage was determined as 0.09.
In the case of G7A U34G it was 0.14; in that of G7A A26C, 0.18; in that of G7A A26U, 0.21.
In the case of G7A A26G, the self-cleavage amounted to 0.24.
In the case of A6U C8U it was 0.29; in that of A6U C8G, 0.15.
The same measure for A6U C8A: 0.27; for G7A G27A: 0.06; for G7A G27U: 0.16.
Regarding G7A G27C, the self-cleavage stood at 0.18.
In the case of G7A C45A it was 0.19; in that of G7A C45U, 0.21.
As to G7A C45G, the self-cleavage stood at 0.29.
The same measure for G7C A14G: 0.08.
In the case of G7C A14U it was 0.15; in that of G7C A14C, 0.23; in that of G7A A24C, 0.12.
The same measure for G7A A24U: 0.16; for G7A A24G: 0.16; for G7A C23U: 0.11.
As to G7A C23G, the self-cleavage came to 0.21.
In the case of G7A C23A it was 0.15; in that of G7C C10A, 0.04; in that of G7C C10U, 0.04.
In the case of G7C C10G it was 0.03; in that of A6G U28G, 0.09.
The same measure for G7A U38A: 0.09.
For G7A U38G, the self-cleavage worked out at 0.02.
The same measure for G7A U38C: 0.1; for A6U A25C: 0.65; for A6U A25G: 0.47.
The same measure for A6U A25U: 0.72; for A6U C46A: 0.74.
In the case of A6U C46G it was 0.41.
With A6U C46U, the self-cleavage was found to be 0.75.
In the case of A6U G19A it was 0.64.
In the case of A6U G19C it was 0.45.
The same measure for A6U G19U: 0.46; for A6U C23G: 0.46; for A6U C23A: 0.9.
With A6U C23U, the self-cleavage was 0.89.
The same measure for G7C A16C: 0.11.
The same measure for G7C A16U: 0.3; for G7C A16G: 0.06.
As to A6U U20C, the self-cleavage was 0.3.
In the case of A6U U20G, the self-cleavage was 0.55.
In the case of A6U U20A it was 0.37; in that of A6U C13G, 0.28.
In the case of A6U C13U it was 0.11; in that of A6U C13A, 0.2; in that of A6U, 0.7.
In the case of G7C G22C it was 0.08.
As to G7C G22U, the self-cleavage is 0.12.
The same measure for G7C G22A: 0.11.
The same measure for A6U C45A: 0.66; for A6U C45G: 0.3.
The same measure for A6U C45U: 1.18.
For A6U U43C, the self-cleavage worked out at 0.51.
Consider A6U U43G, for which the self-cleavage is 0.08.
On to A6U U43A, for which the self-cleavage is 0.13.
In the case of A6U A12G it was 0.04.
In the case of A6U A12C it was 0.04; in that of A6U A12U, 0.17; in that of A6G U34C, 0.09.
Consider A6G U34G, for which the self-cleavage was 0.04.
The same measure for A6G U34A: 0.04.
In the case of A6U C15G, the self-cleavage came to 0.07.
Turning to A6U C15U, the self-cleavage was 0.92.
In the case of A6U C15A it was 0.16; in that of A6U C37U, 0.07.
In the case of A6U C37G it was 0.04.
Take A6U C37A: the self-cleavage was found to be 0.08.
In the case of A6U C18G it was 0.24; in that of A6U C18U, 0.93; in that of A6U C18A, 0.52.
In the case of G7A G30U it was 0.24; in that of G7A G30A, 0.24; in that of G7A G30C, 0.42.
In the case of A6U C42A it was 0.17; in that of A6U C42G, 0.05; in that of A6U C42U, 0.42.
As for A6U U9G, the self-cleavage stood at 0.15.
In the case of A6U U9C it was 0.08; in that of A6U U9A, 0.17.
G7C G27C: the self-cleavage was determined as 0.06.
In the case of G7C G27A it was 0.09; in that of G7C G27U, 0.11; in that of G7A A25U, 0.25.
In the case of G7A A25G it was 0.12; in that of G7A A25C, 0.14.
In the case of A6U G27U it was 0.58; in that of A6U G27A, 0.42; in that of A6U G27C, 0.38.
Regarding G7A U20A, the self-cleavage was determined as 0.12.
In the case of G7A U20G it was 0.06; in that of G7A U20C, 0.07; in that of A6U U34A, 0.06.
In the case of A6U U34G it was 0.28.
For the variant A6U U34C, the self-cleavage is 0.12.
The same measure for A6U C10U: 0.12; for A6U C10G: 0.06.
The same measure for A6U C10A: 0.07; for G7C G21A: 0.2; for G7C G21C: 0.08.
The same measure for G7C G21U: 0.08.
As to G7C, the self-cleavage is 0.13.
The same measure for G7A: 0.2; for G7C C45A: 0.1; for G7C C45U: 0.16.
The same measure for G7C C45G: 0.11; for A6U G44C: 0.75; for A6U G44U: 0.54.
In the case of A6U G44A it was 0.64; in that of G7A G19U, 0.11; in that of G7A G19A, 0.26.
On to G7A G19C, for which the self-cleavage was 0.09.
The same measure for A6G U32C: 0.07.
The same measure for A6G U32A: 0.07; for A6G U32G: 0.07.
Turning to G7C A11U, the self-cleavage was found to be 0.04.
The same measure for G7C A11G: 0.03.
The same measure for G7C A11C: 0.04; for G7A A16C: 0.13; for G7A A16U: 0.32.
For the variant G7A A16G, the self-cleavage was determined as 0.28.
The same measure for A6U G35A: 0.12.
The same measure for A6U G35C: 0.16; for A6U G35U: 0.2; for G7C A39C: 0.21.
In the case of G7C A39U it was 0.15.
Consider G7C A39G, for which the self-cleavage stood at 0.08.
In the case of G7A A12C it was 0.02.
Consider G7A A12U, for which the self-cleavage was 0.15.
The same measure for G7A A12G: 0.05; for G7C G29C: 0.05.
As for G7C G29U, the self-cleavage amounted to 0.13.
The same measure for G7C G29A: 0.13.
The same measure for G7A G17C: 0.18.
In the case of G7A G17A it was 0.16.
Regarding G7A G17U, the self-cleavage is 0.12.
Consider G7C C15G, for which the self-cleavage stood at 0.08.
Turning to G7C C15A, the self-cleavage came out at 0.14.
As to G7C C15U, the self-cleavage came to 0.14.
In the case of G7C C8U it was 0.2; in that of G7C C8G, 0.29.
For the variant G7C C8A, the self-cleavage came out at 0.32.
In the case of A6U G40U it was 0.3.
Regarding A6U G40A, the self-cleavage was determined as 0.35.
In the case of A6U G40C it was 0.15; in that of A6U G29C, 0.34; in that of A6U G29A, 0.79.
The same measure for A6U G29U: 0.66; for A6G U43C: 0.09; for A6G U43G: 0.
Turning to A6G U43A, the self-cleavage came out at 0.15.
In the case of A6U G7A it was 0.26; in that of A6U G7U, 0.14.
Take A6U G7C: the self-cleavage worked out at 0.19.
The same measure for G7A C37U: 0.11.
In the case of G7A C37G it was 0.05; in that of G7A C37A, 0.18.
The same measure for G7A G40U: 0.27; for G7A G40A: 0.19; for G7A G40C: 0.1.
In the case of G7C A12U, the self-cleavage is 0.07.
